From patent US20250257130A1 (NONA BIOSCIENCES SUZHOU, published 2025) come the findings set out here.

Assay [1] has as its target T1, Human ROR1-ECD-his (Acro Biosystems RO1-H522y) (human, UniProt Q01973 30-406).
T1 construct: extracellular domain; bought protein; also called hROR1-ECD-his; hu-ROR1-ECD-his
In words: ELISA, coated hu-ROR1-ECD-his. In general terms: An ELISA detects its analyte on a solid surface through an enzyme-linked reagent.

Assay [2] deals with T2, human ROR1 on cells (HEK293T-hROR1, PANC-1, A549) (human, UniProt Q01973 30-937).
T2 construct: whole, on cells; one molecule for the three cell lines; also called huROR1; cell surface ROR1
T2 sequence (Q01973 30-937): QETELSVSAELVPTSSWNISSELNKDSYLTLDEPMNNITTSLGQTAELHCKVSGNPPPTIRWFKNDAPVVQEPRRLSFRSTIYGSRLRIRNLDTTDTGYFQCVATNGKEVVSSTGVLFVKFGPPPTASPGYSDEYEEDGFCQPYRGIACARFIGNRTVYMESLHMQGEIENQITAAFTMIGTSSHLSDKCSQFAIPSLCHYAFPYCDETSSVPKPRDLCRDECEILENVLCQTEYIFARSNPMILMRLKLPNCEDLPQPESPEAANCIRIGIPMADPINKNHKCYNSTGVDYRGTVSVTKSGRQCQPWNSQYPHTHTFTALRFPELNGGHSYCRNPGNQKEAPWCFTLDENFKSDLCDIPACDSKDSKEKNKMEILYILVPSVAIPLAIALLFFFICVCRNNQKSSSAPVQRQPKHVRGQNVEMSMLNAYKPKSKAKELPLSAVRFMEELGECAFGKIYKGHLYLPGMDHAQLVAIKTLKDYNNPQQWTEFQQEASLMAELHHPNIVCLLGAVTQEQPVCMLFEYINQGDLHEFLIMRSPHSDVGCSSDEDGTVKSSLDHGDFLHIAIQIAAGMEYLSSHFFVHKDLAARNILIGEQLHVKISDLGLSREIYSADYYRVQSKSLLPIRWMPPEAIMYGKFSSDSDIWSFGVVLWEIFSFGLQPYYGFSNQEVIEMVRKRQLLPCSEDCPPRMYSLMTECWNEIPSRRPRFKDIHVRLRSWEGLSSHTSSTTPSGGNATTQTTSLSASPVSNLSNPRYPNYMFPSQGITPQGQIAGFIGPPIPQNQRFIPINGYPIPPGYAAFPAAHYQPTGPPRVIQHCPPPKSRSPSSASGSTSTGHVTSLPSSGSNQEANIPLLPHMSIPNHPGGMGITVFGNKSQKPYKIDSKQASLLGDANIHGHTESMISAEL
In words: flow cytometry, HEK293T-hROR1 cells; HEK293T-hROR1 cells (ROR1 overexpressed), FACS: binds. The protocol: (§1) In brief, anti-ROR1 antibodies were serially diluted in staining buffer (PBS containing 2% FBS). Antibody solution was incubated with 1×10⁵ cells at 4° C. for 1 hour. […] After 1-hour incubation at 4° C., cells were washed twice with staining buffer and subjected to flow cytometry. PR000374 (Bench marker 1) and non-relevant IgG isotype control (Crownbio) were used as positive and negative controls, respectively.

Assay [3] deals with T3, hu-ROR2-ECD-his (Acrobiosystems RO2-H52E5) (human, UniProt Q01974 34-403).
T3 construct: extracellular domain; bought protein; also called Human ROR2 his-tagged protein; Human ROR2, His Tag
T3 sequence (Q01974 34-403): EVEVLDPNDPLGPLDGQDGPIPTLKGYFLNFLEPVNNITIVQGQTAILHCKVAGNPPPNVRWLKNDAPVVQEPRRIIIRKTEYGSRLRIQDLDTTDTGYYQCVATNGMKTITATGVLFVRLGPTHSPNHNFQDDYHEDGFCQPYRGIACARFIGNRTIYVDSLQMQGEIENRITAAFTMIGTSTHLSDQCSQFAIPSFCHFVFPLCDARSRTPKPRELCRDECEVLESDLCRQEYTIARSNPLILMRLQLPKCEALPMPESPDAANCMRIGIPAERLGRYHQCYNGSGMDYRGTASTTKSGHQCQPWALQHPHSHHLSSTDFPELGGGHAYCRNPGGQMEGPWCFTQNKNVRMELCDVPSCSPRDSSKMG
The assay can be described thus: ELISA, plate coated with hu-ROR2-his at 1 µg/mL. The gist of the method:
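Plates were coated overnight at 4 °C with 1 μg/mL human ROR2-ECD-his and blocked with 2% BSA. Serially diluted anti-ROR1 antibodies were bound for 1 h at 37 °C, then secondary antibody for 1 h at 37 °C. Detection was by TMB (~5 min), stopped with H2SO4, and read at 450/570 nm.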

Assay [4] addresses T1, Human ROR1-ECD-his (Acro Biosystems …). The assay can be described thus: BLI, ROR1-His on HIS1K sensor, antibody in solution. The gist of the method:
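His-tagged ROR1 (20 nM) captured on HIS1K biosensors; serially diluted antibodies in kinetics buffer as analyte. Association and dissociation rate constants measured by Octet biolayer interferometry, sensors regenerated with 10 mM glycine-HCl pH 1.5 between cycles.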

Assay [5] has as its target T4, cynomolgus ROR1 on CHO-K1-cynoROR1 cells (cynomolgus monkey, UniProt A0A2K5WTX7 30-937).
T4 construct: whole, on cells
The assay can be described thus: flow cytometry, CHO-K1-cynoROR1 cells. How it is done: as §1
A general note: A flow cytometer gives signals particle by particle.

As usually defined, the EC50 is the midpoint of the concentration-response curve. Read a low EC50 as higher potency in that assay. The Kd is a measure of binding affinity in units of concentration. A lower Kd goes with higher affinity. Usually koff stands for the first-order rate constant of dissociation. Low readings indicate a long-lived complex, high ones a short-lived complex. Broadly, the kon is the second-order rate constant of association.

T1 sequence (Q01973 30-406): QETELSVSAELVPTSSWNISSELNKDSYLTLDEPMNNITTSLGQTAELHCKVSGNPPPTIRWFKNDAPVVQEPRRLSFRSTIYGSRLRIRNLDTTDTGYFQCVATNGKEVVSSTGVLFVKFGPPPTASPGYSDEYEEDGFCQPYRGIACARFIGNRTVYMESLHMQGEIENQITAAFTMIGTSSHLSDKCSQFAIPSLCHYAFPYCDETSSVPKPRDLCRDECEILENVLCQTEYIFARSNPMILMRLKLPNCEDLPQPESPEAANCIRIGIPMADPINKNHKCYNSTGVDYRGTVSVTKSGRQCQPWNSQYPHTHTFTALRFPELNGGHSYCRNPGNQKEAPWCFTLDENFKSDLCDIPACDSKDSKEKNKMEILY

B1: PR303189 (antibody, human IgG1, V domains shown)
VH: EVQLVESGGGLVKPGGSLRLSCAASGFNLSDSYMSWIRQAPGKGLEWVSCISSSGSTIYYADSVKGRFTVSRDNAKNSLYLQMNHLRAEDTALYYCARDCVIGIRDDSDIWGQGTMVTVSS
notes: HCAb (heavy chain-only, human IgG1 Fc), no light chain
For B1, the midpoint of the response in assay [1], the EC50, lay at 0.002 mg/L. In assay [2], this molecule came in with an EC50 of 0.085 mg/L. The binding result in assay [3] is given as “no binding (tested: about 15 µg/ml)”. Besides, in assay [4], binding was put at a Kd of 0.623 nM, the koff is 0.00403 s⁻¹ and the association rate constant (kon) came to 6.46e+06 M⁻¹ s⁻¹. Further, in assay [5], the EC50 was determined as 7.53 mg/L and the “MAX(MFI)” value amounted to 5.3e+06 MFI.
